Laboratory results from the supplement of paper PMC12764529.
± gives the half width of the 95% confidence interval.

Assays:
[1] = folding stability dG unfold (combined trypsin and chymotrypsin); higher = more stable
How it was run: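 Digests were run with trypsin and chymotrypsin at 11 concentrations in threefold dilutions, plus a no-protease condition, on designed mini-proteins in a PA-tagged cDNA display construct. The mini-proteins were under 80 residues, had no cysteine, and were kept only when AlphaFold2 dimer inter-PAE was above 15. After sequencing, Bayesian fitting of the counts gave K50, from which unfolding free energy was derived against a sequence-predicted unfolded-state K50 and a shared folded-state K50, per protease or combined.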

[2] = folding stability dG unfold from trypsin proteolysis; higher = more stable
Experimental: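 Folding stability of de novo designed mini-proteins (<80 aa, no Cys; designed by TrROS, TrMRF, ProteinMPNN and the joint model) was measured by cDNA display proteolysis with trypsin and chymotrypsin. Each protease was used at 11 concentrations in a threefold dilution series plus a no-protease condition. K50 was inferred by Bayesian fitting of sequencing counts, and dG unfold was derived against a sequence-predicted unfolded-state K50 (Tsuboyama et al. method). Sequences shown include variable-length N-terminal GS-type padding (SAGGSAGG...) inside a display construct carrying a PA tag. Rows were kept only if the AF2 dimer inter-PAE was >15, to exclude likely homo-oligomers.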

Row | Sequence | folding stability dG unfold [1] [kcal/mol] | folding stability dG unfold [2] [kcal/mol]
1 | SAGGSAGGSAGGSQELTIKIPPGEPDVRIFFPDGGEEHEIPPGDEREIELSPDKIAVQPSAGGSAGGSAGGS [r10_46_TrROS] | -0.148 ± 0.25 | 0.763 ± 0.059
2 | SAGGSAGGSAGGSSRTIKLDGYKITVHPNSVHIYPPKNGKPVTVPMDNPEVQDLIKELISAGGSAGGSAGGS [r4_353_TrROS] | < -1 | -1.19 ± 0.31
3 | SAGGSAGGSAGGSSSLPLSTGTIPLEELEAQGGPIVEVTVLLFSGSSNRTIVMDLPPELVSAGGSAGGSAGG [r7_116_JUSTAS] | -0.596 ± 0.31 | -0.372 ± 0.29
4 | SAGGSAGGSAGGSSVPADTVVELEFKDEKGEPLLITVRVTTKDSGVDRTVLEVRPPELLSAGGSAGGSAGGS [r10_744_JUSTAS] | -0.424 ± 0.17 | 0.00915 ± 0.05
5 | SAGGSAGGSAGGSSVSSLSIKNPPSDPKGILSSVSPEGKVVLTTVNPDGSLTTTVVDVNSAGGSAGGSAGGS [r4_177_JUSTAS] | 0.414 ± 0.2 | 0.787 ± 0.065
6 | SAGGSAGGSAGGTKEFPIWFGGEPVKVTVEPDPDGQPKIEIEEPGGAEITIPPGGPLQFSAGGSAGGSAGGS [r10_989_TrROS] | 0.343 ± 0.21 | 0.934 ± 0.061
7 | SAGGSAGGSAGGTKVIPFDSVEEILEEVKKDPNKPRYIRMPGAWIKINKPGDITEIEPWPSAGGSAGGSAGG [r7_532_TrROS] | < -1 | -0.655 ± 0.46
8 | SAGGSAGGSAGGVKPGEVLPDGRLLVTWDEETNELTVYFEDTETITLKAPPPVVVSPEDLSAGGSAGGSAGG [r7_522_TrROS_Hall] | -0.614 ± 0.46 | 0.0426 ± 0.11
9 | SAGGSAGGSAGKEIHIPFPDGDTPEQAKKFAKEIADMLAQKNGKPIKVDKIEIIPPEQWPSAGGSAGGSAGG [r17_68_TrROS] | -0.804 ± 0.34 | -0.546 ± 0.11
10 | SAGGSAGGSAGKKRKIEINIIVPPEGAKQMAKMIKDELAQRNRDVDIEIKIIPVPPGQPLSAGGSAGGSAGG [r11_973_TrROS] | < -1 | 0.434 ± 0.16
11 | SAGGSAGGSAGMKPGQEVRVEVPVPNNGKKIKIPVYVPPGYTPKQAKNMAIMMAKMIREMSAGGSAGGSAGG [r11_355_TrROS] | 0.0699 ± 0.096 | 0.516 ± 0.072
12 | SAGGSAGGSAGMKPGQVVIYKIKIPLPDDGEPLFEIPIMYPVGMPEEQAKDFAKEFADKFSAGGSAGGSAGG [r11_516_TrROS] | -0.586 ± 0.24 | -0.41 ± 0.12
13 | SAGGSAGGSAGMLLLTFPERGISYEIKLGDKEEEREADPEEVEKLIAELPNYEVKEVELLSAGGSAGGSAGG [r11_57_JUSTAS] | 0.288 ± 0.26 | 0.559 ± 0.1
14 | SAGGSAGGSAGMPLPIKTLTEVSTVEGVGITLTALDNGLVIVEKSDGKVTVIPLSAYEAQSAGGSAGGSAGG [r11_254_JUSTAS] | -0.0335 ± 0.073 | 0.643 ± 0.04
15 | SAGGSAGGSAGMSPNIVSYETVESDKNGNIIKKTTYLYSDNTIITETFSPKKKKKIQTFSKESAGGSAGGSA [r18_302_JUSTAS] | < -1 | -0.434 ± 0.29
16 | SAGGSAGGSAGMYTVSPVGSGGGGSMIRIENPETGEVIELDFDSEEEAAAAAEELKEKLASAGGSAGGSAGG [r11_848_JUSTAS] | -0.22 ± 0.17 | 0.343 ± 0.043

Row | Sequence | folding stability dG unfold [1] [kcal/mol] | folding stability dG unfold [2] [kcal/mol]
17 | SAGGSAGGSAGNIAERLQEAFPDYGIEVTDITPNGSITVTSRGPPGHRKKIQKAVKELLNSAGGSAGGSAGG [r11_418_TrROS] | < -1 | -0.879 ± 0.57
18 | SAGGSAGGSAGPGEPVPIRLKIYGPNGQPHTHPFPVKNPEEFKDNLRFPVPNGWAVEIEYSAGGSAGGSAGG [r11_671_TrROS] | < -1 | -0.719 ± 0.37
19 | SAGGSAGGSAGPVISKSEVESTEIIFSYNNKHEITVKKVKKTITTTIPPVKLKPDGTPILSAGGSAGGSAGG [r11_558_JUSTAS] | -0.349 ± 0.54 | -0.803 ± 0.51
20 | SAGGSAGGSAGSKEKLEEEAKAKGRPVTPLPDGTLKVETVDPNKGTASTTVIDPETAEKLSAGGSAGGSAGG [r11_994_JUSTAS] | < -1 | -0.626 ± 0.058
21 | SAGGSAGGSAGSMPIVLRAEFPSNDETVEIPVTSPEEAERVAQELAAQPDWPLEKVDFGGSAGGSAGGSAGG [r11_951_JUSTAS] | < -1 | 0.414 ± 0.064
22 | SAGGSAGGSAGSPPGSTTLRAETVVVELPAAEAYTPEGERVELPRVIVEETVERELEAGLSAGGSAGGSAGG [r11_907_JUSTAS] | -0.216 ± 0.31 | 0.427 ± 0.043
23 | SAGGSAGGSAGSVEEIESPDGTKTLVTKEPDSIKTTVTKPGGIPTLVTIDSKTGKWSVSLSAGGSAGGSAGG [r11_590_JUSTAS] | -0.714 ± 0.63 | -0.595 ± 0.24
24 | SAGGSAGGSAGSYEFDPSKSALVRVTLQPPDGVPVEIEIPVEELEEILPGDRPVLSIEVSSAGGSAGGSAGG [r17_449_JUSTAS] | -0.838 ± 0.51 | 0.0674 ± 0.14
25 | SAGGSAGGSAGTKEYEVKVGDKIVRISETPDSRVIDYPETDFKKEFSSDFPGKPIAEYLASAGGSAGGSAGG [r11_648_TrMRF] | < -1 | -0.781 ± 0.49
26 | SAGGSAGGSAGTVIYIDPETDMARVLVPDADGVLVDERAVPPDQLPDVLSQGNFTVVPAPSAGGSAGGSAGG [r11_159_TrMRF] | -0.943 ± 0.84 | -0.327 ± 0.36
27 | SAGGSAGGSAGVELPPSLSAEVTPVPGKPGLSRVTITLPDGVVRTIDLERKGDKWIVNPRSAGGSAGGSAGG [r11_177_JUSTAS] | < -1 | -0.0818 ± 0.14
28 | SAGGSAGGSAMILVPKEKLEEAAKKLNLNIVEVKPVPPGIEVAEVKVEGSEEQKKAFLEALLSAGGSAGGSA [r18_175_JUSTAS] | 0.0149 ± 0.2 | 0.216 ± 0.082
29 | SAGGSAGGSAMKPERIELPGNEVAVIEKVPEAGVYIVTFKKPEGDEPLGEKIFKPDEIDLKLESAGGSAGGS [r20_190_JUSTAS] | < -1 | -1.17 ± 0.24
30 | SAGGSAGGSAMLTKTIKLPNGKPASVTITTLSEGSSPGSSVDPKLVINADPNIPKEIVDKLLSAGGSAGGSA [r18_272_JUSTAS] | -0.685 ± 0.13 | -0.624 ± 0.077
31 | SAGGSAGGSAMTPDELKDNFPNMPVEPRPLNNSTQWKIEMPGGMRIEIQYDPGKPKIDIEEGSAGGSAGGSA [r18_13_TrROS] | -0.622 ± 0.23 | -0.039 ± 0.064
32 | SAGGSAGGSAPLEELLDVIRSVPANTRAEFPIIVETETGYVPYIARVENPEPGGALIEIEKASAGGSAGGSA [r18_493_TrMRF] | < -1 | -0.258 ± 0.11
